B1: CROP (parent)
chain: VFGRGDNISDVSKFLEDDKWMEE

Variants of: B1
Experiment: protein stability index of a GFP-peptide fusion (GPS, HEK-293T) (PSI 1-6); higher = more stable
Conditions: c terminus: native
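Note: lentivirally expressed fusions sorted by FACS into six bins by GFP to DsRed ratio, PSI derived from sequencing read proportions per bin multiplied by bin number.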

Variant | protein stability index
VFGRGDNILDVSKFLEDDKWMEE | 3.1
VFGRGDNITDVSKFLEDDKWMEE | 2.43
VFGRGDNIIDVSKFLEDDKWMEE | 1.97
VFGRGDNIEDVSKFLEDDKWMEE | 2.44
VFGRGDNIGDVSKFLEDDKWMEE | 2.06
VFGRGDNIADVSKFLEDDKWMEE | 2.31
VFGRGDNINDVSKFLEDDKWMEE | 1.78
VFGRGDNIFDVSKFLEDDKWMEE | 1.63
VFGRGDNIQDVSKFLEDDKWMEE | 2.41
VFGRGDNIPDVSKFLEDDKWMEE | 3.03
VFGRGDNIHDVSKFLEDDKWMEE | 2.25
VFGRGDNIYDVSKFLEDDKWMEE | 2.3
VFGRGDNIMDVSKFLEDDKWMEE | 2.47
VFGRGDNIDDVSKFLEDDKWMEE | 2.12
VFGRGDNIKDVSKFLEDDKWMEE | 1.62
VFGRGDNIVDVSKFLEDDKWMEE | 2.11
VFGVGDNISDVSKFLEDDKWMEE | 1.9
VFGTGDNISDVSKFLEDDKWMEE | 2.3
VFGAGDNISDVSKFLEDDKWMEE | 2.43
VFGNGDNISDVSKFLEDDKWMEE | 2.1
VFGCGDNISDVSKFLEDDKWMEE | 2.66
VFGEGDNISDVSKFLEDDKWMEE | 2.42
VFGIGDNISDVSKFLEDDKWMEE | 1.95
VFGYGDNISDVSKFLEDDKWMEE | 2.31
VFGLGDNISDVSKFLEDDKWMEE | 1.98

Variant | protein stability index
VFGGGDNISDVSKFLEDDKWMEE | 2.16
VFGQGDNISDVSKFLEDDKWMEE | 1.99
VFGHGDNISDVSKFLEDDKWMEE | 2.19
VFGFGDNISDVSKFLEDDKWMEE | 2.19
VFGMGDNISDVSKFLEDDKWMEE | 2.77
VFGWGDNISDVSKFLEDDKWMEE | 1.39
VFGSGDNISDVSKFLEDDKWMEE | 2.33
VFGPGDNISDVSKFLEDDKWMEE | 1.51
VFGDGDNISDVSKFLEDDKWMEE | 2.4
VFGKGDNISDVSKFLEDDKWMEE | 2.41
VFGRGDNISDVVKFLEDDKWMEE | 1.86
VFGRGDNISDVIKFLEDDKWMEE | 2.32
VFGRGDNISDVKKFLEDDKWMEE | 2.2
VFGRGDNISDVGKFLEDDKWMEE | 1.41
VFGRGDNISDVYKFLEDDKWMEE | 1.74
VFGRGDNISDVPKFLEDDKWMEE | 1.61
VFGRGDNISDVNKFLEDDKWMEE | 2
VFGRGDNISDVTKFLEDDKWMEE | 2.67
VFGRGDNISDVCKFLEDDKWMEE | 1.73
VFGRGDNISDVAKFLEDDKWMEE | 1.4
VFGRGDNISDVRKFLEDDKWMEE | 1.92
VFGRGDNISDVDKFLEDDKWMEE | 2
VFGRGDNISDVQKFLEDDKWMEE | 2.19
VFGRGDNISDVHKFLEDDKWMEE | 2.31
VFGRGDNISDVFKFLEDDKWMEE | 2.33

Variant | protein stability index
VFGRGDNISDVEKFLEDDKWMEE | 2.56
VFKRGDNISDVSKFLEDDKWMEE | 1.44
VFHRGDNISDVSKFLEDDKWMEE | 1.88
VFARGDNISDVSKFLEDDKWMEE | 2.83
VFQRGDNISDVSKFLEDDKWMEE | 2.11
VFTRGDNISDVSKFLEDDKWMEE | 2.07
VFDRGDNISDVSKFLEDDKWMEE | 2.21
VFRRGDNISDVSKFLEDDKWMEE | 2.1
VFCRGDNISDVSKFLEDDKWMEE | 2.48
VFMRGDNISDVSKFLEDDKWMEE | 1.51
VFFRGDNISDVSKFLEDDKWMEE | 1.44
VFWRGDNISDVSKFLEDDKWMEE | 2.36
VFVRGDNISDVSKFLEDDKWMEE | 1.51
VFPRGDNISDVSKFLEDDKWMEE | 2.84
VFSRGDNISDVSKFLEDDKWMEE | 1.82
VFGRPDNISDVSKFLEDDKWMEE | 2.54
VFGRYDNISDVSKFLEDDKWMEE | 1.32
VFGRWDNISDVSKFLEDDKWMEE | 2.02
VFGRADNISDVSKFLEDDKWMEE | 2.03
VFGRSDNISDVSKFLEDDKWMEE | 3.13
VFGRRDNISDVSKFLEDDKWMEE | 1.74
VFGRIDNISDVSKFLEDDKWMEE | 2.77
VFGRFDNISDVSKFLEDDKWMEE | 1.88
VFGRLDNISDVSKFLEDDKWMEE | 2.16
VFGRMDNISDVSKFLEDDKWMEE | 1.14

Variant | protein stability index
VFGRVDNISDVSKFLEDDKWMEE | 1.61
VFGRDDNISDVSKFLEDDKWMEE | 2.29
VFGRNDNISDVSKFLEDDKWMEE | 3.26
VFGRQDNISDVSKFLEDDKWMEE | 2.3
VFGRCDNISDVSKFLEDDKWMEE | 2.27
VFGRKDNISDVSKFLEDDKWMEE | 3.07
VFGRTDNISDVSKFLEDDKWMEE | 2.63
VFGRGDNASDVSKFLEDDKWMEE | 2.35
VFGRGDNFSDVSKFLEDDKWMEE | 2
VFGRGDNSSDVSKFLEDDKWMEE | 2.48
VFGRGDNLSDVSKFLEDDKWMEE | 2.11
VFGRGDNDSDVSKFLEDDKWMEE | 1.89
VFGRGDNKSDVSKFLEDDKWMEE | 2.23
VFGRGDNHSDVSKFLEDDKWMEE | 1.93
VFGRGDNTSDVSKFLEDDKWMEE | 2.62
VFGRGDNGSDVSKFLEDDKWMEE | 3.51
VFGRGDNMSDVSKFLEDDKWMEE | 2.05
VFGRGDNPSDVSKFLEDDKWMEE | 2.03
VFGRGDNNSDVSKFLEDDKWMEE | 1.44
VFGRGDNYSDVSKFLEDDKWMEE | 1.74
VFGRGDNRSDVSKFLEDDKWMEE | 2.92
VFGRGDNESDVSKFLEDDKWMEE | 2.9
